In the supplement of paper PMC9170038:

System: MS2 coat protein
Assay: apparent KD of MS2 coat protein; designed switch direction (-1 OFF switch, 1 ON switch): -1; higher = weaker reporter binding
How it was run: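 The buffer was Tris-HCl pH 7.5 with KCl, MgCl2, BSA, DTT, tRNA and Tween-20. In it, SNAP-549-labelled MS2 coat protein was titrated in doubling steps from 0.7 or 1.5 nM to 3 µM over chip-bound RNA switches transcribed by stalled E. coli RNA polymerase on Illumina chips. Apparent KD is the per-design median over clusters of curve fits to normalised fluorescence.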

[1] = Eterna round: R95, input ligand: FMN 200 uM
[2] = Eterna round: R95, input ligand: microRNA oligo, concentration not stated
[3] = Eterna round: R95, input ligand: none
[4] = input ligand: microRNA oligo, concentration not stated

| Sequence | apparent KD of MS2 coat protein (input ligand: FMN 200 uM) [nM] | apparent KD of MS2 coat protein (input ligand: none) [nM] | apparent KD of MS2 coat protein [1] [nM] | apparent KD of MS2 coat protein [2] [nM] | apparent KD of MS2 coat protein [3] [nM] | apparent KD of MS2 coat protein [4] [nM] |
| --- | --- | --- | --- | --- | --- | --- |
| CCAAGCUAUUUCAUAACAAACAUGAGGAUCACCCAUGUGUAAGCAAUUAUGUUUGGGCUCUUUAGUGCUCGUCUUAU [JR_STOV1_Sub046] (Eterna round: R97, puzzle: Sensor, turn-off variant 1) | 19.2 | 19.2 | – | – | – | – |
| CCAAGCUGUGUGAGGAUAUGCUGGACCUUGGUUCAGCAGAAGGCACAUGAGGAUCACCCAUGUGAAAAGCUUGG [Mat - Exclusion 4 - JL Mod - D94] (puzzle: Brourd's mod of Exclusion 4) | – | – | 47.5 | 16.6 | 16.4 | – |
| CCAAGCUUAUUCAUUAACCACAUGAGGAUCACCCAUGUAUAGGCAAUUAUGACUGGCCCAUCUGGUGCUCGUCUUAU [Sensor-V1 #30] (Eterna round: R97, puzzle: Sensor, turn-off variant 1) | 17 | 15.9 | – | – | – | – |
| CCAAGCUUAUUCAUUAACCACAUGAGGAUCACCCAUGUCUUGGCAAUUAUGACUUGCCCGUCAGGUGCUCGUCUUAU [Sensor-V1 #34] (Eterna round: R97, puzzle: Sensor, turn-off variant 1) | 32.2 | 32.9 | – | – | – | – |
| CCAAGCUUUUUCAAUAACAACAUGAGGAUCACCCAUGUUUAAGCUAUUACUUUUGGGCUCUUUAGUGCUAGUCUUAU [JR_STOV1_Sub038] (Eterna round: R97, puzzle: Sensor, turn-off variant 1) | 18 | 18.2 | – | – | – | – |
| CCAAGGGAGGAGGAUAUACCCGCCAAUUGGCUUGUAGAAGGCCUCACAUGAGGAUCACCCAUGUGGGACAAAAC [Eternabot (Original) Solution 21] (Eterna round: R97, puzzle: Exclusion 6) | 22.8 | 18.4 | – | – | – | – |
| CCAAGUUCAUAGGAUAUCAGACGGAUAAAGGUAUGAGAAGGAUGAACAUGAGGAUCACCCAUGUGCACUCCCGA [EX6 B.19] (Eterna round: R97, puzzle: Exclusion 6) | 34.1 | 14.2 | – | – | – | – |
| CCAAUACAAGGAUAUGCGAUGCAUGUCAGGUUAGUAGACAGACAUGAGGAUCACCCAUGUAGAAGGUGUGUUGG [Eternabot (L2) Solution 55] (Eterna round: R97, puzzle: Exclusion 2) | 75.6 | 41.4 | – | – | – | – |
| CCACGACAUGAGGAUCACCCAUGUGAGGAUAUGGCCUGAAAAGCGUGAGCAGUUUUUAUCAGAAGGCGCGUGGG [salish99_ex1_r4_064_4A's4U's] (Eterna round: R97, puzzle: Exclusion 1) | 63.6 | 31.5 | – | – | – | – |
| CCACGACAUGAGGAUCACCCAUGUGAGGAUAUGGCCUGUAAAGCGUGAGCUGAAUCAAUCAGAAGGCGCGUGGG [salish99_ex1_r4_058] (Eterna round: R97, puzzle: Exclusion 1) | 119 | 46.1 | – | – | – | – |
| CCACGUCCGUACGUGUACUUGUCUCCUGAGAGCACGGGCACAUGAGGAUCACCCAUGUUUUUGCUCGUCUUAUGAGC [JR_Sensorv2_tov2_Sub716] (Eterna round: R96, puzzle: Sensor v2, turn-off variant 2) | 13.8 | 17.7 | – | – | – | 25.4 |
| CCAGCAAAUGUGAGGAUAUGCUGGUCCUUGGAUCAGCAGAAGGCACAUGAGGAUCACCCAUGUGGGAUAGCUGG [Eli bmx4 4.59] (Eterna round: R97, puzzle: Brourd's mod of Exclusion 4) | 412 | 194 | – | – | – | – |
| CCAGCAAUUGUCAGGAUAUGCUGGUCCUUGGAUCAGCAGAAGGGACAUGAGGAUCACCCAUGUGGAAAAGCUGG [Eli bmx4 4.64] (Eterna round: R97, puzzle: Brourd's mod of Exclusion 4) | 231 | 54.7 | – | – | – | – |
| CCAGCGUAUGUGAGGAUAUGCUGGUCCUUGGAUCAGCAGAAGGCACAUGAGGAUCACCCAUGUGAUGACGUUGG [JL bmx4 3.40] (puzzle: Brourd's mod of Exclusion 4) | – | – | – | 42.6 | – | – |
| CCAGGAAGGCAGGAUAUCCAAAGCCGUCCCGGCGGAGAAGGGCUAACUUGAGGAUCACCCAAGUGAUGCCUAAC [Oreden] (Eterna round: R97, puzzle: Exclusion 6) | 13 | 14.2 | – | – | – | – |
| CCAGGCAGGCUAUUUGCUCACAUGAGGAUCACCCAUGUUGUAUCCCUUGAAUCUAGAUGGUUCAGGCUUAAUUAUUU [Eternabot (L2) Solution 28] (Eterna round: R97, puzzle: Sensor, turn-off variant 1) | 47.5 | 66 | – | – | – | – |
| CCAGUGUAAGGAUAUGACAAUGGUAUCUUCGGAUACCAUUGUCAGAAGGUACAUGAGGAUCACCCAUGUAACAC [Ex4-3: 12] (puzzle: Exclusion 4) | – | – | – | 15.3 | – | – |

| Sequence | apparent KD of MS2 coat protein (input ligand: FMN 200 uM) [nM] | apparent KD of MS2 coat protein (input ligand: none) [nM] | apparent KD of MS2 coat protein [1] [nM] | apparent KD of MS2 coat protein [2] [nM] | apparent KD of MS2 coat protein [3] [nM] | apparent KD of MS2 coat protein [4] [nM] |
| --- | --- | --- | --- | --- | --- | --- |
| CCAUAUAACUGAGGAUAUCAUCGCAACUGACGUUGAGAAGGCAGACAUGAGGAUCACCCAUGUGAUUUCUCAAUAUUAUACAUC [Prohibition 80 - Jieux - Exclusion NG 1] (Eterna round: R96, puzzle: Exclusion NG 1) | 245 | 61.1 | – | – | – | 31.2 |
| CCAUCGAGUGUGAGGAUAUGCUGGUCAAUAGAUCAGCAGAAGGCACAUGAGGAUCACCCAUGUGGAGACGGUGG [Mat - Exclusion 4 - JL Mod - D79] (puzzle: Brourd's mod of Exclusion 4) | – | – | 333 | 44.8 | 70.6 | – |
| CCAUCGUGUGUGAGGAUAUGCUGGACCUUGGUUCAGCAGAAGGCACAUGAGGAUCACCCAUGUGAAGACGGUGG [Mat - Exclusion 4 - JL Mod - D89] (puzzle: Brourd's mod of Exclusion 4) | – | – | 51.4 | 24.6 | 18.1 | – |
| CCAUGGGAGCGAGGAUAUAGCCCAUGGGAAGAGCUAGAAGGCGCAGACAUGAGGAUCACCCAUGUGUUCAUGAGGAGGUGGACA (Eterna round: R96, puzzle: Exclusion NG 1) | 95.5 | 73.7 | – | – | – | 47.9 |
| CCAUGUUAGCAGGAUAUGCCAUUAUUCCUUUACGCAGAAGGGCUUACAUGAGGAUCACCCAUGUAACAUUUCAU [JR_E6_Sub083] (puzzle: Exclusion 6) | – | – | – | 14.1 | – | – |
| CCAUUAUAAGGAUAUACAUGAGGAUCACCCAUGUACAGGUUAGUUGUACGUACACCGAGUAGAAGGUAUAGAGG [Eternabot (L1) Solution 21] (Eterna round: R97, puzzle: Exclusion 3) | 62.5 | 63.4 | – | – | – | – |
| CCCAGAUAAGGAUAUUGAAGGUUCGACAUGAGGAUCACCCAUGUUAUGUUGGAAAAGGGACAAGAAGGUAUGAAAA [salish99_ex5_r4_216] (Eterna round: R97, puzzle: Exclusion 5) | 31.2 | 33.1 | – | – | – | – |
| CCCAGUUAGAGAGGAUAUCGUACAUGAGGAUCACCCAUGUAAUAAAUGAGGAUUUCGGGUGUCUGCGAGAAGGCUCGGAUAGGC [Ostracism 31 - Jieux - Exclusion NG 2] (Eterna round: R96, puzzle: Exclusion NG 2) | 105 | 47 | – | – | – | 32.9 |
| CCCAGUUAGGAAGGAUAUUGUACAUGAGGAUCACCCAUGUAAUAAAUGAGGAUUUCGGGUGUCUACAAGAAGGUCCGGAUAGGC [Ostracism 13 - Jieux - Exclusion NG 2] (Eterna round: R96, puzzle: Exclusion NG 2) | 110 | 59.4 | – | – | – | 39.2 |
| CCCAGUUAGUCAGGAUAUCAUACAUGAGGAUCACCCAUGUAAUAAAUGAGGAUUUCGGGUGUCUAUGAGAAGGGACGGAUAGGC [Ostracism 28 - Jieux - Exclusion NG 2] (Eterna round: R96, puzzle: Exclusion NG 2) | 29.6 | 24.5 | – | – | – | 18.8 |
| CCCAGUUAGUGAGGAUAUCAUACAUGAGGAUCACCCAUGUAAUAAAUGAGGAUUUCGGGUGUCUAUGAGAAGGCACGGAUAGGC [Ostracism 26 - Jieux - Exclusion NG 2] (Eterna round: R96, puzzle: Exclusion NG 2) | 27.2 | 30.4 | – | – | – | 22.2 |
| CCCAUAUUGGAAGGAUAUUACCACAUGAGGAUCACCCAUGUGGUUUAAGGCUUACAACGACGUGGUAAGAAGGUCCAUUAUAUG [Eternabot solution 45] (Eterna round: R96, puzzle: Exclusion NG 2) | 28.1 | 15.4 | – | – | – | 13.7 |
| CCCAUGUCAGGAUAUUAAUUGGGCGGGAAAUCCCACCCACUUGAGAAGGGACAUGAGGAUCACCCAUGUAAAAC [Indila] (Eterna round: R97, puzzle: Exclusion 4) | 66.6 | 629 | – | – | – | – |
| CCCAUGUCAGGAUAUUAGAUACUGCCGCAAAACAAAGGCAUUGAGAAGGGACAUGAGGAUCACCCAUGUAAAAC [Soraxerila] (Eterna round: R97, puzzle: Exclusion 4) | 112 | 326 | – | – | – | – |
| CCCGAACAUGAGGAUCACCCAUGUCAGGAUAUAUUGCAGUGCAGAGCGCGUGCUAAGGAUAGAAGGGACAUGAA [Eternabot (L2) Solution 62] (Eterna round: R97, puzzle: Exclusion 1) | 31.4 | 29 | – | – | – | – |
| CCCGCAGGUUUUUUGCUCGACAUGAGGAUCACCCAUGUUGUAUGGGUUGUGUGUGUGUGGUGCAUAUAUAUGGUCCU [-25.6, -47.7 kcal, A 16%] (Eterna round: R97, puzzle: Sensor, turn-off variant 1) | 427 | 655 | – | – | – | – |
